The values that follow come from publication PMC8643683, “Loss of full-length hnRNP R isoform impairs DNA damage response in motoneurons by inhibiting Yb1 recruitment to chromatin” (Nucleic Acids Research, 2021).

For this test, the target named is T1, Y-box binding protein 1 (Yb1), endogenous mouse (mouse (endogenous in primary mouse …, UniProt P62960 1-322)).
T1 construct: also called Msy1; source: endogenous, primary mouse motoneuron lysate; endogenous, NSC-34 lysate
As to the kind of experiment: co-IP; Yb1 (sc-101198) or γ-H2AX (clone JBW301) immunoprecipitated on protein A or G Dynabeads from whole lysates of NSC-34 cells, 0 Gy or 9 Gy; IP lysis buffer (50 mM Tris-HCl pH 7.4, 140 mM NaCl, 1% Triton X-100) with 1 U Benzonase, overnight at 4°C; western blot. Conditions: partners not purified. On the technique in general: A western blot detects proteins with antibodies after separation by electrophoresis.

T1 sequence (P62960 whole entry): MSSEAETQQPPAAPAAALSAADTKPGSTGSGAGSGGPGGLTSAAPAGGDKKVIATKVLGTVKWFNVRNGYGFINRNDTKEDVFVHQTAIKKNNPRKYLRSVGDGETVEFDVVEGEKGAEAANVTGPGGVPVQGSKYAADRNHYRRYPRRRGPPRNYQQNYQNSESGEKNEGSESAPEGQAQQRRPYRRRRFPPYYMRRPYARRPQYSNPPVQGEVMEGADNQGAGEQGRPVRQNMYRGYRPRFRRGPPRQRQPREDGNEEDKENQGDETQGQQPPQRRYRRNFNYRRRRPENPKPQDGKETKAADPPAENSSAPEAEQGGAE

B1: hnRNP R-FL (full-length hnRNP R isoform), endogenous (natural protein, mouse (endogenous in NSC-34), UniProt Q8VHM5 1-632, looked up)
chain: MANQVNGNAVQLKEEEEPMDTSSVTHTEHYKTLIEAGLPQKVAERLDEIFQTGLVAYVDLDERAIDALREFNEEGALSVLQQFKESDLSHVQNKSAFLCGVMKTYRQREKQGSKVQESTKGPDEAKIKALLERTGYTLDVTTGQRKYGGPPPDSVYSGVQPGIGTEVFVGKIPRDLYEDELVPLFEKAGPIWDLRLMMDPLSGQNRGYAFITFCGKEAAQEAVKLCDSYEIRPGKHLGVCISVANNRLFVGSIPKNKTKENILEEFSKVTEGLVDVILYHQPDDKKKNRGFCFLEYEDHKSAAQARRRLMSGKVKVWGNVVTVEWADPVEEPDPEVMAKVKVLFVRNLATTVTEEILEKSFSEFGKLERVKKLKDYAFVHFEDRGAAVKAMDEMNGKEIEGEEIEIVLAKPPDKKRKERQAARQASRSTAYEDYYYHPPPRMPPPMRGRGRGGRGGYGYPPDYYGYEDYYDDYYGYDYHDYRGGYEDPYYGYDDGYAVRGRGGGRGGRGAPPPPRGRGAPPPRGRAGYSQRGAPLGPPRGSRGGRGGPAQQQRGRGSRGARGNRGGNVGGKRKADGYNQPDSKRRQTNNQQNWGSQPIAQQPLQQGGDYSGNYGYNNDNQEFYQDTYGQQWK
notes: hnRNP R, mouse, full-length 632-amino acid protein encoded by transcript variant 1, translated from the AUG in exon 2; source: endogenous, NSC-34 lysate
With B1, the “fold preference of co-precipitation with Yb1 over hnRNP R-ΔN” value came out at 1.7 fold.
